Laboratory results: article PMC9482650, “Quantitative fragmentomics allow affinity mapping of interactomes” (Nature Communications, 2022)
Substitutions are numbered along the chain they refer to.

B1: SAPCD1, Q5SSQ6 (peptide)
chain: TKGPRGPTRV
B2: DACT1, Q9NYF0 (peptide)
chain: SGSLKLMTTV
B3: SLC45A4, Q5BKX6 (peptide)
chain: QGPVETESVV
B4: SDC4, P31431 (peptide)
chain: KKAPTNEFYA
B5: NOSTRIN, Q8IVI9 (peptide)
chain: SNAGNTATKA

Columns and labels:
Assay in all cases: holdup assay
Parameters in all cases: key: below the threshold = too weak to quantify, mostly under pKd 3.1 to 4
Conditions in all cases: plain residues with an end cap or a label only (N-terminal biotin on a linker: ado-ado)
[1] = target: HTRA2, O43464
[2] = target: T1, PCLO, Q9Y6V0
T1 sequence (Q9Y6V0 4491-4600, limits assumed, looked up): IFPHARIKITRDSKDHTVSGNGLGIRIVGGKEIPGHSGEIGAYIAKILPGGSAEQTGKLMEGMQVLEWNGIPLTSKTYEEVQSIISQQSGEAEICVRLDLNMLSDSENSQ

[3] = target: T2, LIN7C, Q9NUP9
T2 sequence (Q9NUP9 88-185, limits assumed, looked up): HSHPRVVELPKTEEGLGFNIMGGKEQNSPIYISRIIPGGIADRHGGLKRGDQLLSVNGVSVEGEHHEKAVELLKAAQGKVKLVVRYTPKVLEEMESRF

[4] = target: T3, APBA1_2, Q02410
T3 sequence (Q02410 742-832, limits assumed, looked up): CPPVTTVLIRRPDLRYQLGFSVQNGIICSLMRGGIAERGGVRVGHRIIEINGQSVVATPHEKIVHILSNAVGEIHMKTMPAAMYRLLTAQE

[5] = target: T4, APBA2_1, Q99767
T4 sequence (Q99767 563-664, limits assumed, looked up): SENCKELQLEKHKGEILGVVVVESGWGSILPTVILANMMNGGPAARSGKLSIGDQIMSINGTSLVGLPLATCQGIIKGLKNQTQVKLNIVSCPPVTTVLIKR

[6] = target: MAGI2_6, Q86UL8
[7] = target: Inadl_9, Q8NI35
[8] = target: FRMPD2_3, Q68DX3
[9] = target: T5, SNTG2, Q9NY99
T5 sequence (Q9NY99 68-166, limits assumed, looked up): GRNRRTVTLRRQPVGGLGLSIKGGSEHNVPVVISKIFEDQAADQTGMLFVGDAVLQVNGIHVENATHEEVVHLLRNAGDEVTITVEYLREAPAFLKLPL

[10] = target: GRIP2_7, Q9C0E4
[11] = target: GRASP, Q7Z6J2
[12] = target: DLG2_3, Q15700
[13] = target: T6, PARD3B_1, Q8TEW8
T6 sequence (Q8TEW8 196-299, limits assumed, looked up): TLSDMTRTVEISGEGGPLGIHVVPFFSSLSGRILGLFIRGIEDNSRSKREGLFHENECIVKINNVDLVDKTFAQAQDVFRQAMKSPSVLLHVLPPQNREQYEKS

[14] = target: T7, LIN7A, O14910
T7 sequence (O14910 103-200, limits assumed, looked up): T2 sequence (Q9NUP9 88-185, limits assumed, looked up) with E13D, I20V, I40V, D42E, Q77K, G78D, K79S, S96A

[15] = target: T8, ARHGEF11, O15085
T8 sequence (O15085 42-136, limits assumed, looked up): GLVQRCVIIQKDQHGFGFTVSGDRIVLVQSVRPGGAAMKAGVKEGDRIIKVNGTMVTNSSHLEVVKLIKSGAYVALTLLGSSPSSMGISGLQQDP

[16] = target: AHNAK1, Q09666
[17] = target: LNX1_1, Q8TBB1
[18] = target: DLG5_1, Q8TDM6
[19] = target: DLG1_2, Q12959
[20] = target: FRMPD3, Q5JV73
[21] = target: LNX1_2, Q8TBB1
[22] = target: T9, TX1BP3, O14907
T9 sequence (O14907 10-122, limits assumed, looked up): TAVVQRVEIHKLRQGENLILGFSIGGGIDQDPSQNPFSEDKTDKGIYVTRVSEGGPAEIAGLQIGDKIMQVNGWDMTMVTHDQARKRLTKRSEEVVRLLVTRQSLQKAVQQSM

[23] = target: MAGI3_2, Q5TCQ9
[24] = target: LIMK2, P53671
[25] = target: T10, DLG3_1, Q92796
T10 sequence (Q92796 125-227, limits assumed, looked up): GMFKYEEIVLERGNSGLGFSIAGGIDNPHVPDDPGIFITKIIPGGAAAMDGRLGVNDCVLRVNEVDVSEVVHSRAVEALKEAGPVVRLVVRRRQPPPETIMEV

[26] = target: Inadl_10, Q8NI35
[27] = target: T11, RAPGEF6, Q8TEU7
T11 sequence (Q8TEU7 525-625, limits assumed, looked up): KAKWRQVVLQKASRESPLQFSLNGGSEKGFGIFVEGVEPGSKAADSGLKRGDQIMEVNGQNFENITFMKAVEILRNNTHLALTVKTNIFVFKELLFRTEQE

Sequence of Inadl_10, Q8NI35 (Q8NI35 1673-1763): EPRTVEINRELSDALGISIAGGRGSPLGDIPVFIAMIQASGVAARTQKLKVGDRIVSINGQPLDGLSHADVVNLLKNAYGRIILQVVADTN
Sequence of FRMPD2_3, Q68DX3 (Q68DX3 1073-1166): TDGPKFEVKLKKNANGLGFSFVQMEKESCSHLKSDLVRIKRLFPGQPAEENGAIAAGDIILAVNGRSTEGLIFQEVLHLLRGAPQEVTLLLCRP
Sequence of MAGI3_2, Q5TCQ9 (Q5TCQ9 398-503): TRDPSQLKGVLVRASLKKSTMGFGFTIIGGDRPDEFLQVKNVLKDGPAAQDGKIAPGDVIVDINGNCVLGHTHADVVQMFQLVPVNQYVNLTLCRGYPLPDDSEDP
Sequence of LNX1_2, Q8TBB1 (Q8TBB1 371-470): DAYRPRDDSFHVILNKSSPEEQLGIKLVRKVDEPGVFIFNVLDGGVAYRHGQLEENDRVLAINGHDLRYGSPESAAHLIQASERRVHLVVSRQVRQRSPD
Sequence of MAGI2_6, Q86UL8 (Q86UL8 1141-1229): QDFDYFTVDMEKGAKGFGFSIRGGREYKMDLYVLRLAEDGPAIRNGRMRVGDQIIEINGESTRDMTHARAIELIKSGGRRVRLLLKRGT
Sequence of GRASP, Q7Z6J2 (Q7Z6J2 96-193): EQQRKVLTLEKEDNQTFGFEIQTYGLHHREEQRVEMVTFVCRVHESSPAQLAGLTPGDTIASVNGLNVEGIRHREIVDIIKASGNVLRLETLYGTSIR
Sequence of AHNAK1, Q09666 (Q09666 4-100): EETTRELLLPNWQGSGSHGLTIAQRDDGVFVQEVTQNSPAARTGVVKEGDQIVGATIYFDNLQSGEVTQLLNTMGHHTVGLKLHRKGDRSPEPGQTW
Sequence of LIMK2, P53671 (P53671 143-248): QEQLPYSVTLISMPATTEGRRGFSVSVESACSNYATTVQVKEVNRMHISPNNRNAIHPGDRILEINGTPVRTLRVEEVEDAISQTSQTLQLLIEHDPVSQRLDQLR
Sequence of GRIP2_7, Q9C0E4 (Q9C0E4 934-1023): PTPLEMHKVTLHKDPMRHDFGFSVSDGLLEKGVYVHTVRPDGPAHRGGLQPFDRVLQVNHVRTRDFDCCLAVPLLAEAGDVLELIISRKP
Sequence of FRMPD3, Q5JV73 (Q5JV73 12-100): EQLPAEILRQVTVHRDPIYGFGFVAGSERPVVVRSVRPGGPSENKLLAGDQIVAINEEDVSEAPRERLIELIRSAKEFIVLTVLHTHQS
Sequence of Inadl_9, Q8NI35 (Q8NI35 1530-1615): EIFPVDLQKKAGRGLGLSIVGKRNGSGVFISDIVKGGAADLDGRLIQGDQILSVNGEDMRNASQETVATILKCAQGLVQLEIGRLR
Sequence of DLG1_2, Q12959 (Q12959 314-412): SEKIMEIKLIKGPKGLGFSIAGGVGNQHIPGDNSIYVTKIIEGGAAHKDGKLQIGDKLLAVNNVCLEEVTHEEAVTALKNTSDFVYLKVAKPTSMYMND
Sequence of DLG5_1, Q8TDM6 (Q8TDM6 617-713): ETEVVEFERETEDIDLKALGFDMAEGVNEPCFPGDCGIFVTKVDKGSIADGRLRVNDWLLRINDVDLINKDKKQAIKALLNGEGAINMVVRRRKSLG
Sequence of HTRA2, O43464 (O43464 355-458): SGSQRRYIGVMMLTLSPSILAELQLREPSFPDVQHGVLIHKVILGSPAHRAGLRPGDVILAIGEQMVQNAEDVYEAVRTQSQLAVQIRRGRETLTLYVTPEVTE
Sequence of LNX1_1, Q8TBB1 (Q8TBB1 261-371): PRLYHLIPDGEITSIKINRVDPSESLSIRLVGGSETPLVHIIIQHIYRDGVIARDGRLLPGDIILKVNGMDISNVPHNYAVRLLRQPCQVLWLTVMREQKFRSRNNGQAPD

Binder	pKd [1]	pKd [2]	pKd [3]	pKd [4]	pKd [5]	pKd [6]	pKd [7]	pKd [8]	pKd [9]	pKd [10]	pKd [11]	pKd [12]	pKd [13]	pKd [14]	pKd [15]	pKd [16]	pKd [17]	pKd [18]	pKd [19]	pKd [20]	also measured
B1	below the threshold	below the threshold	below the threshold	4.47	below the threshold	below the threshold	4.11	below the threshold	4.18	below the threshold	4.59	4.55	below the threshold	below the threshold	4.03	below the threshold	below the threshold	below the threshold	4.68	below the threshold	pKd [21]: below the threshold; pKd [22]: below the threshold; pKd [23]: 5.41; pKd [24]: below the threshold; pKd [25]: 3.96; pKd [26]: below the threshold; pKd [27]: below the threshold
B2	below the threshold	below the threshold	below the threshold	3.5	below the threshold	below the threshold	below the threshold	below the threshold	3.66	below the threshold	4.02	4.4	below the threshold	3.68	4.71	below the threshold	4.04	below the threshold	5.54	below the threshold	pKd [21]: 3.84; pKd [22]: 3.75; pKd [23]: 5.21; pKd [24]: below the threshold; pKd [25]: 4.45; pKd [26]: 3.84; pKd [27]: below the threshold
B3	below the threshold	below the threshold	below the threshold	3.79	below the threshold	3.55	3.75	3.54	4.34	below the threshold	3.48	below the threshold	below the threshold	below the threshold	3.99	below the threshold	3.95	below the threshold	4.69	3.5	pKd [21]: below the threshold; pKd [22]: 3.81; pKd [23]: 4.47; pKd [24]: below the threshold; pKd [25]: 3.88; pKd [26]: below the threshold; pKd [27]: below the threshold
B4	below the threshold	below the threshold	3.78	below the threshold	below the threshold	below the threshold	below the threshold	below the threshold	below the threshold	below the threshold	below the threshold	3.62	4.52	below the threshold	below the threshold	below the threshold	below the threshold	below the threshold	below the threshold	3.84	pKd [21]: below the threshold; pKd [22]: 3.85; pKd [23]: below the threshold; pKd [24]: below the threshold; pKd [25]: below the threshold; pKd [26]: below the threshold; pKd [27]: below the threshold
B5	below the threshold	below the threshold	below the threshold	below the threshold	below the threshold	below the threshold	below the threshold	below the threshold	below the threshold	below the threshold	below the threshold	3.6	below the threshold	below the threshold	below the threshold	below the threshold	below the threshold	below the threshold	below the threshold	below the threshold	pKd [21]: below the threshold; pKd [22]: below the threshold; pKd [23]: below the threshold; pKd [24]: below the threshold; pKd [25]: below the threshold; pKd [26]: below the threshold; pKd [27]: below the threshold
